{"source": "the DeepSol protein solubility set"}
{"assay": "soluble on expression in E. coli; label from the status in PepcDB or PDB records"}
{"sequence": "MGSDKIHHHHHHENLYFQGMKTIVIEDKQRIESIILQADACFVGITDLEGNPYVVPMNFGYENDTLYLHSGPEGGKIEMLQRNNNVCITFSLGHKLVYQHKQVACSYSMRSESAMCRGKVEFIEDMEEKRHALDIIMRHYTKDQFSYSDPAVRNVKVWKVPVDQMTGKVFGLRADEKP", "soluble on expression in E. coli": "soluble"}
{"sequence": "MGSDKIHHHHHHEPTKLTPENYFNTPAEANSFLTGIYAILSQPTFYGGDYMYLVAGDDLSHYGGSGRGPASTGLICNNATTSDNAVTAFWYALYSGINRANMFLENIDKVNGFDAGVKEQYIAEARFLRAFYYFNLVECWGDVPFKTVSTQSVTNLNIPRTDKQEIYDFIISEMADAAETGLKSASDLAYKPGRISQSTAWGILARVYLFRAGEHYREGRNATQAEKKDYFERASFYAQKVMTAGHKLAANYWDPFIDMCSDKYNTTANESIWEAEFAGNNTSDTQAEGRIGNIIGLAGPDLSSKSDVTGAKDPGYGYAFIYSTPKLYNLYVNNGDTKRFNWSIAPFEYKEAGGKNTGVTHREFEQGKLAEVMSQYGQQRGTYQYADDTEKTTATKNFSRMCGKYRREYEADKKDKNYTSINFPILRYADVLLMIAEAENEANNGPTTLAYQCMKEVRERAGLNELPDMTQEEFRQTVKDERAMELCFEYTRRFDLIRWGEYVKNMRALVTEAQSGNNWTQGPTNVYTYFNISSTYNYFPIPDAEMSVNKDITQNNPGW", "soluble on expression in E. coli": "not soluble"}
{"sequence": "MGSDKIHHHHHHETNNLKTKEDMYKYFGTSKSMLTHVYSYMPQGYQLFATSGGIFTEDRYSMRDCASDDGEFGAYADNIQNTNNGNWSPIKTYDDSWTLYRGIRAANSFIAEIAQVDFTRYEHDGQYTNWMKQLKYFPYEARVLRAHYFFELARRYGDIAMPLEVLTEEEANTIGKTPFSEVISFIVSECDDAANNLPDSYVNEPGAEIGRVTKGFAMAVKSKALLYAASKLHNPSMDTELWKKSAKAAIDIINTGLYSLDPQESANNLDSKEVVLMRINGDDSDFEMFNLPLRMTAGTRTSSLIPYSNYPSQNLVDAFETVNGYKVTLENTGWVCEDPAFDPQSPYENRDKRFYRAILANGMSFKDYTIETFKGGADDGIVSQGGSPTGYFLRKYIQEATSFEPGKEAVSKHHWVIYRYAETLLTYAESMVNAFNDVNYTDETYKYSALWAINEVRKNADMPLIPSMGKDEFMERLYNEWRVEFAFEDHRFWDVRRWKIADTTQRELYGVKIEKQADGTFNFYKNLYETRNWRDCMYLYPIPQSELYKNTNLNPQNTGW", "soluble on expression in E. coli": "not soluble"}
{"sequence": "MGSDKIHHHHHHFKSKGKKSKRKKRNYFDSEDDDDESESETKYGGKFGKKKLEGLQKRLRETESAMSKILEQLESVQAGANPVDLDAADKRSEQLEEDPSVKEAVGLTETNEQYIKDLEVALKEFQSLSKEYDKAKMKKLKRKDSSSDEDEEDEEENSSELSEIEEEEEEVKPVKKSKSSSQSVGKRKNRPKSTSEEEDEGEEESRKVAEDAEEEGIDIDSEIREHAEKEKKDKNVRRRRPKKT", "soluble on expression in E. coli": "not soluble"}
{"sequence": "MGSDKIHHHHHHGCNQSSKSDTKKEVTSKVGTYASVDCSTFTKSKDLPKGASCGYLTVPEKHAIKGQSASKKTMEIAVLKIPATKTEAKADPVVYLQGGPGYSAIDSLEDFTQSKAKYLWNDRDFYLVDQRGTGHAKPAYKCTEFNTVKGSIEQVKACKARLKAKGVDFSAYQSVQSAHDFIMLRKALKLDSWNLYGASYGTRLAETIIREDSQGVRSVILDGVFPIEVNGLSDTPWATYATLDRIVANCDASINCASEILKPMIESIIERLQNQGEEQAAIRFVNYIASLAGDARVVPLILAIDKDLNIIINEKDNEEAEGYFAPMALSVVCAEEYAFLNQTALEGRNDKNWSTTTTLTVNKMFHEGFDIDSCKAWDVAAADSIETQAVTSNLPILVINGGNDHQTPPAWGELVVKNMPNAQLFTNPQGGHVQLTSQNPYRNCIDGITMAFLAAPDQKIKTQCTSMIPVFKYN", "soluble on expression in E. coli": "not soluble"}
{"sequence": "MGSDKIHHHHHHGEDEKKPEIVVDPAEKTIEYYIAGKVTEGTTALSGVEVKAGEVTATTDAEGAYKLTVDSKKMYTVTFSKEGYMSIDNATATIADNAANRSMVSLSVKLSKKAPEKEVKADAEEEVVVTDKGDSNISQAEAAVIIPPKAIETTTTVSVTPYEEPAAVTTTVTPGNNVETPVAIANIEVETAKEVTLAKPVTLAIINKASEHTTFENVEVYNQKTTTRAGENWNKVADAIYDSETNSYKFTLPAGASLSGKYSMRVKSSKTTGKERIGETNKEEKKSNEGNMTAIPEYKINFEATAGWEYTVSPEKALMNAGVDAADAQGMATTINSAIEAQEGTTGTYKVAHELIAGISGNHILYYLNQAKYCEKTYTFKISGGRTVTITLKFYTGMQITYTNVEASQHSGGKI", "soluble on expression in E. coli": "not soluble"}
{"sequence": "MGSDKIHHHHHHGEGVVVATGKAQAAASTVAGNAYGRLQFSPCTLSSGSAAGNIEAQCAQLQVPENPAAPNGRKLALKIAWLESDAGASHAPDPVFFIAGGPGQSATQVAAIVDMGLREVRKHRDIFLVDQRGTGGSHPLECRDAGGTPLVLENDSAATAEQLSAYAARCAAGLRNDADPRYFTTSEAIGDLDAVREALGAQQINLIGGSYGTRVAQQYAARYPQHTRTVVLDGVAPNDLVIGGEFARTFEDAIALQTTQCKAQPACAKRFPVDTRTQLRQVVERLRQAPAPVDYRDPRTGELHHQEVNADTVAGLAFGFSYAPETASLLPLVLDEAAAGRYASLMALAQMSGSDMADQMNRPMQWSVLCSEDAGRYRAPAAQDDTLLGAQVAEMFFAACKTWPSKPTPAAAFAPFRSTLPVLLLSGQLDPVTPPRYAARVLQGLPNGRHLIAPGQSHGVFRLGCMPKVLGQFLQTADAKGLDARCVDSLTDVPAFTSFNGWEP", "soluble on expression in E. coli": "not soluble"}
{"sequence": "MGSDKIHHHHHHILPNDESQKLIVNALINANKTNNAIFLALSGYHEPQVVKNGIIHLYINNVLSETISECTYRPNNDSPLDYQNYFYQISSRFKTGDQVRIEVETKDGKYKANAEATVYEPIEIIKADTIESNHSLSETSESLWIYQATKWKIKLQTPTTNHSQYYRVNIKQTYTYRLTNRKTLQDSTAISTQWECSGYYDTALMDGKPGTPNNSDPIINFIPTINNYYNVFNDAYFTNNQYTMTLDSWYSFLLDNKLYKIKKITGKAIIQYYAISPAEYQYLRAANAYADHDSSNLLETPVIFPNNIKGGIGIFAIENPTETSIPLKSIEDY", "soluble on expression in E. coli": "not soluble"}
{"sequence": "MGSDKIHHHHHHIPFDESIQTVDDVNLAVIGIYDAFKSSALYSGNLTILPDLQADLVYGVNGNTNTFGDIWRWKDILATNTSIEAVYAGLYNVINRCNFMLDRVDRVRNNTTDDKDLYKLDQCCGEAYFARAIAYSELVKMFCKAYESDEDAANQLGVILTKHYQGNEEMKRASLKASYEFILEDLDRAAQLLALDKDYDPSVDGALFNNATYFNEYTVYALRARVALYMRKWDEAIKYSSKVIDSEYYLLASCTRTISSGVSYYKYMWTDDMSTEAIWKVGFTINSYGGKLGQIFLNYNHVNYRPDYVPANWVFGLYDSNDLRPETIFQTLQTGFSHGLSWPLLIKYAGNNEFIAANILHVSMPKVLRLSEQYLIRAEAYVQQAQPDYGRAGKDITTLRTARYSTYGGSTALSASNAMEVIEAERVKELYMEGFRLHDLKRWHKGFERKPQDQSLANGSSLKVEADDPLFVWPIPQHELDAPGSQVQPNESNK", "soluble on expression in E. coli": "not soluble"}
{"sequence": "MGSDKIHHHHHHLAVLRYTVTNTGQLSVSGSWSASVKHPLIAVVFSSGRPDAPTLGKILKQLKKRYGIKNFNAVGHSAGSAAWANWAVTPDKQGMPQLRRLITIAGPFNGFPGMPGMNGGQHITLAKDGRPNVMSDRYKPLYDNRRYFPKTAAVLNLFGNLGKGTDGRVPVNSARSLRYVVAGRAKSYTEREITNSKAQHSQLHEHNPLVNRYLYEFLNNGKITN", "soluble on expression in E. coli": "not soluble"}
{"sequence": "MGSDKIHHHHHHLGESGKNFDHRRGWVESRLFELEAVFAIDVAAFAVMSNHLHVVLRIDIETANCWTDREVLEQWHKLFNGDEITQKFVKGEVVETHEVLRLKHSIATYRSRLCDISWFMRCLNEPIARQANQEDSCTGRFWEGRFKSQALLDEAAVLACMAYVDLNPIRAKMASTPEQSDHTSIQLRIQAALRGEQPISLLPFIGNERKNQPKGIAFSLQDYLELVDDTGRIIRNDKHGAISTNSAKLLTRLNIFQENWLKLTTEFGKLFHGPVGTLQELTSYCEHLEKRRRHFASCCQHLMAS", "soluble on expression in E. coli": "not soluble"}
